Measured values as given in patent US20260263521A1, “ANTI-CD200R1 ANTIBODY AND USE THEREOF” (AIMED BIO INC., priority 2023, published 2026).

Tests used:
human CD200R1 = target: T1, human CD200R1 (Homo sapiens, UniProt Q8TD46); assay: ELISA binding to human CD200R1; conditions: ELISA, Example 14
T1 sequence (Q8TD46 25-348): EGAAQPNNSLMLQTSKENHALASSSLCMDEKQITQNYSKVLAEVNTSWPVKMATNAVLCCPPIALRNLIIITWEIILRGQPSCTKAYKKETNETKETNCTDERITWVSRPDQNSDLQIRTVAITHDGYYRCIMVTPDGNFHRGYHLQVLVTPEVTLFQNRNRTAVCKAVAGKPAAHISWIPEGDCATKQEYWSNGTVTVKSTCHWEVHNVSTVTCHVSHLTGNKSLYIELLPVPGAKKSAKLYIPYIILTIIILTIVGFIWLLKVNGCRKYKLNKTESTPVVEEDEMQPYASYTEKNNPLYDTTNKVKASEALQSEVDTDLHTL
Description: 96-well plates were coated with human CD200R1 (R&D systems, 3414-CD) and mouse CD200R1 protein (R&D systems, 2554-CD) at a concentration of 2 μg/mL at 4° C. for 16 hours and then were blocked with 3% skim milk. The result was treated with the antibodies at concentrations of 300 nM, 60 nM, 12 nM, 2.4 nM, 0.48 nM, 0.096 nM, and 0.0192 nM, and reacted at room temperature for 2 hours.
The result was washed with PBST and distilled water, the samples were bound with a goat-derived HRP-conjugated anti-human antibody (Invitrogen, 31482, Goat anti-Human IgG F(ab′)2 Secondary Antibody, HRP) for 1 hour at room temperature, and then washed again with PBST and distilled water. Color was developed with a TMB substrate solution (Thermo Scientific, 34029, 1-Step™ TMB-ELISA Ultra Substrate Solution). The color reaction was stopped with stop solution (Invitrogen, SS04, ELISA Stop Solution). The absorbance was measured at an optical density of 450 nm.

[1] = test system: Th1/Th2 cytokines in nasal polyp patient specimens; assay: Ex vivo cytokine inhibition in nasal polyp patient specimens (CBA); assay type: cell-based, human; conditions: antibody drugs 100 nM; three DUPIXENT-resistant samples of 10; Th2 cytokines IL-5, IL-4
Description: The specimens were finely chopped and minced, and then additionally processed twice using the m_lung_02 protocol on a gentleMACS (Miltenyi Biotec) to obtain tissue fragments. After centrifugation at 1500 rpm for 3 minutes to ensure that all tissues formed a pellet, RPMI media+10% FBS was aliquoted in the pellet at a 1:3 ratio. The pellet was thoroughly mixed with the medium and dispensed into a 96-well u-bottom plate, 100 μl per well, in triplicate for each drug. To establish the screening assay, results were obtained first using dexamethasone (a steroid-based positive control drug), followed by treatment with the anti-CD200R1 antibody (P001009v1) and other drugs used for the corresponding disease. All antibody-based drugs were treated at 100 nM, while steroid drugs such as dexamethasone were treated at 20 μM.
After drug treatment, the cells were incubated at 37° C. for 1 hour. To increase overall cytokine levels, 4 μl of a 10-fold diluted cell stimulation cocktail 500× (Invitrogen #00-4970-03) was added on each well and mixed. After reaction for 24 hours at 37° C., the supernatant was collected by centrifugation. Using the human Th1/Th2 cytokine cytometric bead array (CBA) kit (BD, #550749), cytokine levels in the supernatant were measured and the degree of drug responsiveness of each sample was determined.

B1: P001009v1: P001009 variant, LC S52 and LC S94 substituted with K and R; VH SEQ ID NO: 79 (antibody, V domains shown)
VH: EVQLLESGGGLVQPGGSLRLSCAASGFTFSSYDMSWVRQAPGKGLEWVSWISHGGGSIYYADSVKGRFTISRDNSKNTLYLQMNSLRAEDTAVYYCARDAPAYSAPLFDYWGQGTLVTVSS
VL: QSVLTQPPSASGTPGQRVTISCSGSSSNIGNNAVNWYQQLPGTAPKLLIYYDKNRPSGVPDRFSGSKSGTSASLAISGLRSEDEADYYCAAWDDRLSGYVFGGGTKLTVL
- binding ability to human CD200R1 compared to parent (human CD200R1): improved
- cytokine suppression in nasal polyp patient samples [1]: superior cytokine suppression
